T1: Macaca fascicularis IL2Rγ extracellular domain expressed with a C-terminal myc-myc-hexahistidine tag (Macaca fascicularis)
T1 construct: also called mfIL-2Rg-MMH; mfIL-2RG-MMH
T1 chain: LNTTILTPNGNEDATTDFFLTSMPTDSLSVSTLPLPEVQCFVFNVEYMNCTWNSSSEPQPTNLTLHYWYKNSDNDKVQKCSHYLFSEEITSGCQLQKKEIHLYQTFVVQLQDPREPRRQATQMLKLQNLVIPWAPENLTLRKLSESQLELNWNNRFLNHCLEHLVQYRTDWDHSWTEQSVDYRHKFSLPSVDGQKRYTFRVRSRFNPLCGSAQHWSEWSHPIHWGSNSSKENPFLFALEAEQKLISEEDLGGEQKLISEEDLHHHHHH

T2: Human IL2Rγ extracellular domain expressed with a C-terminal myc-myc-hexahistidine tag (human)
T2 construct: also called hIL-2Rg-MMH; hIL-2RG-MMH
T2 chain: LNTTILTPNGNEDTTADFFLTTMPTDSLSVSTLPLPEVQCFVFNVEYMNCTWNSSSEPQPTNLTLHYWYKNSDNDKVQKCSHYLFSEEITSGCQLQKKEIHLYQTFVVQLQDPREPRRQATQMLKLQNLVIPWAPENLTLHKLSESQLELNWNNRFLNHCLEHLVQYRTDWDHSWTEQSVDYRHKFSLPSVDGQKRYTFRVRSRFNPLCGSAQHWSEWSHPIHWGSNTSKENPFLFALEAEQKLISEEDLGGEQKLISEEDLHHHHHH


Experiments:
[1] = target: T1, Macaca fascicularis IL2Rγ extracellular …; assay: SPR, captured mAb, 25C, dissociation pH 6.0
Experimental: (§1) The dissociation rate constant (kd) for binding of IL-2Rγ reagents to purified anti-IL2Rγ monoclonal antibodies was determined using a real-time surface plasmon resonance based Biacore 4000 biosensor platform. […] The CM5 Biacore sensor surface derivatized by amine coupling with monoclonal mouse anti-human Fc antibody (GE, Catalog # BR-1008-39) was used to capture anti-IL2Rγ monoclonal antibodies expressed with human IgG4 Fc. All the IL2Rγ reagents were expressed with a C-terminal myc-myc-hexahistidine tag (subsequently referred to with a -MMH suffix). […] The dissociation of bound IL-2Rg-MMH was performed in PBS-T-pH7.4 or PBS-T-pH6.0 running buffers for 6 minutes.
(§2) Dissociation rate constants (kd) in two running buffers were determined by fitting the real-time binding sensorgrams to a 1:1 binding model using Scrubber 2.0c curve-fitting software. Values of dissociation rate for […] mAb binding to hIL-2RG-MMH and mfIL-2RG-MMH at 25° C. and 37° C. in PBS-T-pH7.4 and PBS-T-pH6.0 is shown in Table 2-1 through Table 2-8.

[2] = target: T2, Human IL2Rγ extracellular domain …; assay: SPR, captured mAb, 25C, dissociation pH 6.0
Experimental: as §1, §2

[3] = target: T2, Human IL2Rγ extracellular domain …; assay: SPR, captured mAb, 37C, dissociation pH 7.4
Experimental: as §1, §2

[4] = target: T2, Human IL2Rγ extracellular domain …; assay: SPR, captured mAb, 37C, dissociation pH 6.0
Experimental: as §1, §2

[5] = target: T1, Macaca fascicularis IL2Rγ extracellular …; assay: SPR, captured mAb, 25C, dissociation pH 7.4
Experimental: as §1, §2

[6] = target: T2, Human IL2Rγ extracellular domain …; assay: SPR, captured mAb, 25C, dissociation pH 7.4
Experimental: as §1, §2

Row | 100 nM Ag Bound (RU) [1] [RU] | koff [1] [s⁻¹] | t1/2 [1] [min] | 100 nM Ag Bound (RU) [2] [RU] | koff [2] [s⁻¹] | t1/2 [2] [min] | 100 nM Ag Bound (RU) [3] [RU] | koff [3] [s⁻¹] | t1/2 [3] [min] | 100 nM Ag Bound (RU) [4] [RU] | koff [4] [s⁻¹] | t1/2 [4] [min] | 100 nM Ag Bound (RU) [5] [RU] | koff [5] [s⁻¹] | t1/2 [5] [min] | 100 nM Ag Bound (RU) [6] [RU] | koff [6] [s⁻¹] | t1/2 [6] [min] | Binder
1 | 100 | 0.000385 | 30 | 103 | 0.000377 | 31 | 141 | 0.000661 | 17 | 136 | 0.00172 | 7 | 111 | 0.000171 | 68 | 111 | 0.000184 | 63 | H4H12858P (antibody, human IgG4 S228P, kappa, V domains shown, anti-IL2Rgamma mAb expressed with human IgG4 Fc; also called REGN9433) VH: EVQLVESGGDLVQPGGSLRLSCTASGFIFRNYAMNWVRQAPGKGLEWLSGILGSNDNTYYVDSVKGRFTISRDNSRNTLYLQMNSLRAEDSAVYYCAKGDAGGFDYWGQGTLVTVSS VL: DVVMTQSPLSLPVILGQPASISCRSSQSLVSSDGNTYLNWFQQRPGQSPRRLIYKVSNRDSGVPDRFSGSGSGTDFTLKISRVEAEDVGAYYCMQGSYWPPTFGQGTKLEIKR
2 | 96 | 0.000439 | 26 | 93 | 0.000417 | 28 | 110 | 0.000599 | 19 | 120 | 0.00148 | 8 | 94 | 0.000179 | 65 | 82 | 0.000139 | 83 | H4H13538P (antibody, human IgG4 S228P, kappa, V domains shown, anti-IL2Rgamma mAb expressed with human IgG4 Fc) VH: EVQLVESGGGLVQPGGSLGLSCAASGFTFSNYAMSWVRQAPGKGLEWVSAVSGGGGGTYYADSVKGRFTISRDNSKNTVLLQMNSLRAEDTAVYYCARGRTGGLDYWGPGTLVTVSS VL: DVVMTQSPLSLPVIFGQPASISCRSSQSLVDSDGNTYLNWLQQRPGQSPRRLIYEVSNRDSGVPDRFSGSGSGTDFTLTISRVEAEDVGIYYCMQGTRWPPTFGGGTKVEIKR
3 | 118 | 0.000761 | 15 | 116 | 0.000762 | 15 | 176 | 0.000672 | 17 | 145 | 0.00226 | 5 | 155 | 0.000194 | 59 | 151 | 0.000172 | 67 | H4H12863P (antibody, human IgG4 S228P, kappa, V domains shown, anti-IL2Rgamma mAb expressed with human IgG4 Fc) VH: QVQLVESGGGVVQPGRSLRLSCTASGFTFRSYDMYWVRQAPGKGLEWVSVITYDGNNKYYADSVKGRFTISRDNSKNTLFLQMSSLRPEDTAVYYCAKRGLIWVGESFDYWGQGTLVTVSS VL: DIQMTQSPSTLSASVGDRVTITCRASQSINSWLAWYQQKPGKAPNLLIYKASSLESGVPSRFSGSGSGTEFTLTISSLQPDDFATYYCQQYKSYSWTFGQGTKVEIKR
4 | 44 | 0.000992 | 12 | 43 | 0.00105 | 11 | 82 | 0.00116 | 10 | 59 | 0.00383 | 3 | 57 | 0.000272 | 43 | 56 | 0.000303 | 38 | H4H12913P2 (antibody, human IgG4 S228P, kappa, V domains shown, anti-IL2Rgamma mAb expressed with human IgG4 Fc) VH: EVQLVESGGGVVRPGGSLRLSCAASGFTFDDYGMSWVRQAPGKGLEWISSINRNGGSADYADSVKGRFTISRDNAKNSLFLQMSSLRAEDTALYHCASGEFRFDYWGQGTLVTVSS VL: not shown
5 | 30 | 0.0032 | 3.6 | 30 | 0.00499 | 2.3 | 23 | 0.00982 | 1.2 | 19 | 0.0239 | 0.5 | 38 | 0.000984 | 12 | 36 | 0.00163 | 7 | H4H12927P2 (antibody, human IgG4 S228P, kappa, V domains shown, anti-IL2Rgamma mAb expressed with human IgG4 Fc) VH: EVQLVESGGGVVRPGGSLRLSCATSGFTFDDYGMSWVRQVPGKGLEWVSSVNRNGGTTDYADSVKGRFTISRDNAKRSLFLQMNSLRAEDTALYHCATGELFFDYWGQGTLVTVSS VL: not shown
6 | 64 | 0.000729 | 16 | 66 | 0.000724 | 16 | 99 | 0.000572 | 20 | 91 | 0.00261 | 4 | 73 | 0.000164 | 70 | 72 | 0.000162 | 71 | H4H12874P (antibody, human IgG4 S228P, kappa, V domains shown, anti-IL2Rgamma mAb expressed with human IgG4 Fc) VH: QVQLVESGGGVVQPGRSLRLSCAASGFNFRNFGMHWVRQAPGKGLEWVAGILYDGSSKYYADSVKDRFTISRDNSKNTLFLQMNSLRAEDTAMYYCAKEEDTAMVPFDSWGPGTLVTVSS VL: DIQLTQSPSFLSASVGDRVTITCWASQGISSYLAWYQQKPGKAPTLLIYAASTLQSGVPSRFSGSGSGTEFTLTISSLQPEDFASYYCQQLKSYPLTFGGGTKVEIKR
7 | 37 | 0.00413 | 2.8 | 39 | 0.00503 | 2.3 | 55 | 0.00454 | 2.5 | 36 | 0.0132 | 0.9 | 51 | 0.000871 | 13 | 54 | 0.00111 | 10 | H4H12859P (antibody, human IgG4 S228P, kappa, V domains shown, anti-IL2Rgamma mAb expressed with human IgG4 Fc) VH: QVQLVQSGAEVKKPGASVRVSCKASGYTFTDYDIHWVRQAPGHGLEWMGWINPNSGGTNYAQKFQGRVTMTRDTSISTVYMDLSRLRSDDTAVYYCARADYSSSYYYYGMDVWGQGTTVTVSS VL: not shown
8 | 128 | 0.00116 | 10 | 129 | 0.00136 | 8 | 139 | 0.00111 | 10 | 141 | 0.00246 | 5 | 125 | 0.000481 | 24 | 121 | 0.000596 | 19 | H4H12871P (antibody, human IgG4 S228P, kappa, V domains shown, anti-IL2Rgamma mAb expressed with human IgG4 Fc; also called REGN9434) VH: QVQLQESGPGLVKPSQTLSLTCTVSGGSITSGGYYWSWIRQYPGQGLEWIGYIYYSGKTYYNPSFTSRITISVDTSKKQFSLKMSSVTAADTAVYYCARAGFTSSNGWFDPWGQGTLVTVSS VL: DIQMTQSPSSLSASVGDRVTITCRASQNIRSYLNWYQQKPGKAPKLLIYSASSLQSGVPSRFSGSGSGTDFTLTISSLQPEDFPTYYCQQTYSSPWTFGPGTKVEIKR
9 | 129 | 0.00111 | 10 | 126 | 0.00118 | 10 | 184 | 0.000773 | 15 | 147 | 0.00374 | 3 | 168 | 0.000191 | 61 | 164 | 0.000204 | 57 | H4H12922P2 (antibody, human IgG4 S228P, kappa, V domains shown, anti-IL2Rgamma mAb expressed with human IgG4 Fc; also called REGN7256) VH: QVQLVESGGGVVKPGGSLRLSCAASGFTFSNSGIHWVRQAPGKGLEWVALISYAGSNKYYADSVKGRFTISRDNSKNTLSLQMNSLRAEDTAVYYCAKEVWTGTYDSFDMWGRGTMVTVSS VL: not shown

From patent US20200247894A1 (Regeneron, published 2020)
